Measured values taken from patent publication US20070134249A1 (GENITOPE, published 2007).

Tests used:
Test in all cases: ELISA
Parameters in all cases: key: 0 = <0.5 OD, 1 = 0.5-1.0 OD, 4 = 1-4 OD
[1] = biological target: T1, PIN185 fully human Id protein (human)
T1 construct: Patient-derived idiotype immunoglobulin used as control antigen in SPR
From the text: (§1) Before specificity screening, all of the clonal immunogen-positive hybridoma supernatants were re-screened on the immunogen, a non-family member Id protein, and KLH, if animals were immunized with Id protein that has been conjugated KLH. As described above, this screen identifies HC-specific clones but not mAbs against the light chain constant region. Clones identified positive to the immunogen and KLH were […]. Those found positive to the immunogen but not to the non-family member Id protein or KLH were tittered on the immunogen. In addition to normalizing for different binding affinities and concentrations, each hybridoma supernatant was titered on the fully human form of the Id protein used as the immunogen(s) for the V regions. The titer or dilution resulting in an ELISA absorbance of 2.5 to 3 OD after 30 min. incubation time was then used. Hybridoma specificity was determined by screening against available Id proteins expressing the same HV and KV or LV as well as different HV, KV and LV. The final ELISA results are expressed as follows: 0 (<0.5 OD), 1 (0.5-1.0 OD), or 4 (1-4 OD). Positive hybridoma supernatants are categorized according to specificity: anti-Id, anti-constant region (HC, KC or LC), or V region (HV, KV, LV family or family member).
(§2) In general, the fully human Id protein or proteins containing the immunogen V regions were coated onto 96-well ELISA plates at 2.5-5 ug/mL in carbonate buffer pH 9.6 and incubated at 4° C. for up to 14 days. On the day of the ELISA, plates were brought to RT and blocked with Tris-Tween-20, pH 7.6 for 15-60 min. at RT. Following a NaCl and Triton X-100 wash, diluted hybridoma cell culture supernatants were incubated overnight at 4° C. Hybridoma supernatant dilutions ranged from 1:2 to 1:25 and were prepared in PBS with 5% BSA. Plates were washed and incubated with HRP-conjugated goat anti-mouse IgG-specific detecting antibody. A chromogenic substrate (TMB) was used to measure the amount of mouse antibody bound to each well. The reaction was stopped at or before 30 minutes with IN H2SO4 and plates were read immediately. Absorbency readings at 450 nm ranging between 0-4 OD and using Molecular Devices plate reader and SOFTMAX PRO software.

805 = biological target: T2, 805
T2 construct: H3-7 K3-11; also called PIN805
From the text: as §1, §2

626 = biological target: T3, 626
T3 construct: H5-51 K4-1; also called PIN626
From the text: as §1, §2

899 = biological target: T4, 899
T4 construct: H4-34 K4-1; also called PIN899
From the text: as §1, §2

763 = biological target: T5, 763
T5 construct: H4-59 K4-1; also called PIN763
From the text: as §1, §2

585 = biological target: T6, 585
T6 construct: H4-59 K4-1; also called PIN585
From the text: as §1, §2

199 = biological target: T7, 199
T7 construct: H3-7 K4-1; also called PIN199
From the text: as §1, §2

844 = biological target: T8, 844
T8 construct: H3-7 K4-1; also called PIN844
From the text: as §1, §2

839 = biological target: T9, 839
T9 construct: H3-23 K4-1; also called PIN839
From the text: as §1, §2

1014 = biological target: T10, 1014
T10 construct: H3-53 K4-1; also called PIN1014
From the text: as §1, §2

791 = biological target: T11, 791
T11 construct: H3-30 K4-1; also called PIN791
From the text: as §1, §2

659 = biological target: T12, 659
T12 construct: H3-21 K4-1; also called PIN659
From the text: as §1, §2

529 = biological target: T13, 529
T13 construct: H3-48 K4-1; also called PIN529
From the text: as §1, §2

566 = biological target: T14, 566
T14 construct: H3-73 K4-1; also called PIN566
From the text: as §1, §2

204 = biological target: T15, 204
T15 construct: H3-15 K4-1; also called PIN204
From the text: as §1, §2

631 = biological target: T16, 631
T16 construct: H4-34 K4-1; also called PIN631
From the text: as §1, §2

898 = biological target: T17, 898
T17 construct: H3-15 K4-1; also called PIN898
From the text: as §1, §2

902 = biological target: T18, 902
T18 construct: H3-7 K3-20; also called PIN902
From the text: as §1, §2

170 = biological target: T19, 170
T19 construct: H4-34 K4-1; also called PIN170
From the text: as §1, §2

1154 = biological target: T20, 1154
T20 construct: H4-61 K4-1; also called PIN1154
From the text: as §1, §2

grade [1]: 4
grade 805: 4
grade 626: 4
grade 899: 4
grade 763: 4
grade 585: 4
grade 199: 4
grade 844: 4
grade 839: 4
grade 1014: 4
grade 791: 4
grade 659: 4
grade 529: 4
grade 566: 4
grade 204: 4
grade 631: 4
grade 898: 4
grade 902: 4
grade 170: 4
grade 1154: 4
B1: mAb clone 12C3 (antibody, V domains shown)
VH: EVKLVESGGGLVQPGGSLSLSCAASGFTYTDYYMNWVRQPPGKALEWLALIRNKANGYTTEYSASLKGRFTISRDNSQSILYLQMNALRAEDSATYYCVRENINYYFDYWGQGTTLTVSS
VL: DIVLTQSPASLAVSLGQRATISCRASESVEYFGASLMQWYQQKSGQPPKLLIRAATNVESGVPARFSGSGSGTDFSLNIHPVEEDDIAMYFCQQSRKVPWTFGGGTKLEIKR
notes: Mouse hybridoma mAb, fusions 20/21 (PIN628 V regions)
